According to paper PMC10653093:

Molecular target: Recombinant human heterodimeric S100A8/A9 (human) (UniProt P05109)
Assay: ELISA

Chain of UniProt P05109 (P05109 whole entry, chain 1 of 2): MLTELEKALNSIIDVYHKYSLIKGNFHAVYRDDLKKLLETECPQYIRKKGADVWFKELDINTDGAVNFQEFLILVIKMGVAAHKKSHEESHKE
Chain of UniProt P05109 (P06702 whole entry, chain 2 of 2, further chain): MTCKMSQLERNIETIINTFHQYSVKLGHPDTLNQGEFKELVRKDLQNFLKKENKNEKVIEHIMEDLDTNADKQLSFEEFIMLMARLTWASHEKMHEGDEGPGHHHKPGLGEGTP

EC50: 130 nM
Substance: recombinant soluble GPIbα (His-17-Leu505) (domain or fragment)
